Reference: the supplement of paper PMC7125110
± gives the standard error. For some assays here: Fewer inactive variants are shown than the library holds.

B1: glmS ribozyme (parent)
chain: AUAAAAGCGCCAGAACUACAGAAAUGUAGUUGACGAGGAGGAGGUUUAUCGAAUUUUCGGCGGAUGCCUCCAAA

How the values were obtained:
Conditions in all cases: with glucosamine-6-phosphate
glucosamine-6-phosphate [1] = variants of: B1; experiment: kcat; higher = faster cleavage; RNA array
Procedure, shortened: (§1)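 Tiles bearing barcoded ribozyme variants, transcribed in situ by E. coli RNA polymerase on sequenced MiSeq chips, were imaged over ~14 h at 37 °C using a hybridised Cy3 probe. Glucosamine-6-phosphate was supplied at 40 μM to 10 mM in HEPES/KCl/Mg(OAc)2 buffer. kobs came from one- or two-exponential decay fits to normalised per-tile medians, and weighted Michaelis–Menten fits then provided kcat and KM.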

glucosamine-6-phosphate [2] = variants of: B1; experiment: self-cleavage kobs at 2500 uM GlcN6P; higher = faster cleavage; RNA array
Procedure, shortened: as §1

glucosamine-6-phosphate [3] = variants of: B1; experiment: self-cleavage kobs at 10000 uM GlcN6P; higher = faster cleavage; RNA array
Procedure, shortened: as §1

glucosamine-6-phosphate [4] = variants of: B1; experiment: KM; higher = weaker cofactor use; RNA array
Procedure, shortened: as §1

glucosamine-6-phosphate [5] = variants of: B1; experiment: self-cleavage kobs at 640 uM GlcN6P; higher = faster cleavage; RNA array
Procedure, shortened: as §1

glucosamine-6-phosphate [6] = variants of: B1; experiment: self-cleavage kobs at 160 uM GlcN6P; higher = faster cleavage; RNA array
Procedure, shortened: as §1

glucosamine-6-phosphate [7] = variants of: B1; experiment: self-cleavage kobs at 40 uM GlcN6P; higher = faster cleavage; RNA array
Procedure, shortened: as §1

Row | Variant | kcat (glucosamine-6-phosphate [1]) [s⁻¹] | self-cleavage kobs at 2500 uM GlcN6P (glucosamine-6-phosphate [2]) [s⁻¹] | self-cleavage kobs at 10000 uM GlcN6P (glucosamine-6-phosphate [3]) [s⁻¹] | KM (glucosamine-6-phosphate [4]) [µM] | self-cleavage kobs at 640 uM GlcN6P (glucosamine-6-phosphate [5]) [s⁻¹] | self-cleavage kobs at 160 uM GlcN6P (glucosamine-6-phosphate [6]) [s⁻¹] | self-cleavage kobs at 40 uM GlcN6P (glucosamine-6-phosphate [7]) [s⁻¹]
1 | A15G G32C C67G | 1.35e-05 ± 1.1e-06 | – | – | – | – | – | –
2 | G13A U31G | 0.000328 ± 7.1e-05 | 6.35e-05 ± 1.5e-05 | 0.000153 ± 2.2e-05 | – | – | – | –
3 | U31C U65C | 5e-05 ± 2.5e-06 | 4.75e-05 ± 9.5e-06 | 4.78e-05 ± 6.9e-06 | 238 ± 120 | 3.88e-05 ± 1.4e-05 | – | –
4 | A12U C50U C67G | 4.36e-05 ± 2.1e-05 | – | – | – | 6.16e-05 ± 2.1e-05 | – | –
5 | C16A G62A | < 1e-05 | – | – | – | – | < 1e-05 | –
6 | U54C C67A | 0.00598 ± 0.0014 | – | 0.00521 ± 0.00071 | 1580 ± 590 | 0.00199 ± 0.00058 | 0.000315 ± 0.00012 | 0.000198 ± 3.2e-05
7 | U56G U57G | < 1e-05 | – | < 1e-05 | – | – | – | –
8 | G38C C58G C70U | < 1e-05 | – | – | – | – | – | –
9 | C34G C70G | 1.99e-05 ± 6.6e-07 | – | – | 234 ± 89 | – | – | –
10 | C58G | 0.000194 ± 8.4e-06 | 8.3e-05 ± 1.6e-06 | 0.000149 ± 2.3e-06 | 3180 ± 300 | 3.47e-05 ± 1.2e-06 | 1.37e-05 ± 2.9e-06 | –
11 | A14U A36G G66U | < 1e-05 | – | < 1e-05 | – | < 1e-05 | – | –
12 | A48U G66U | 2.75e-05 ± 2.7e-06 | – | 2.42e-05 ± 8e-06 | – | – | – | –
13 | G35U A36C | < 1e-05 | < 1e-05 | < 1e-05 | – | – | < 1e-05 | < 1e-05
14 | G13C U45A | 0.000315 ± 0.00011 | 9.3e-05 ± 2.3e-05 | 0.000213 ± 3.9e-05 | – | 6.93e-05 ± 3.2e-05 | – | –
15 | C61U U69G | 1.8e-05 ± 3.9e-06 | – | – | – | – | – | –
16 | G35U C70U | < 1e-05 | – | < 1e-05 | – | < 1e-05 | < 1e-05 | –
17 | U45A A64G | 0.0186 ± 0.0054 | – | 0.015 ± 0.004 | 600 ± 260 | 0.0143 ± 0.0033 | 0.00526 ± 0.0021 | 0.000998 ± 0.00025
18 | G7U G60A | < 1e-05 | < 1e-05 | < 1e-05 | – | < 1e-05 | – | –
19 | C58U A64G | 0.00011 ± 1.9e-05 | 5.74e-05 ± 1.1e-05 | 8.51e-05 ± 1.1e-05 | – | – | – | –
20 | U45A A53G | 0.0342 ± 0.011 | – | 0.0473 ± 0.012 | 692 ± 270 | 0.0131 ± 0.0026 | 0.00536 ± 0.0026 | 0.002 ± 0.00022
21 | C50A G62U | < 1e-05 | – | < 1e-05 | – | – | – | < 1e-05
